# Reference: the RNAGym collection of RNA variant scans (doi:10.7554/elife.80360)
# B1: Twister Ribozyme (parent)
# chain: AACACUGCCAAUGCCGGUCCCAAGCCCGGAUAAAAGUGGAGGGGGCGG
# Variants of: B1
# Assay: self-cleavage, relative activity (ratio to wild type); higher = more cleavage; co-transcriptional
row,Variant,self-cleavage
1,A30U G44U,0.973
2,C27U A35U,0.775
3,C27U A35G,0.271
4,G29C G41U,0.125
5,G29C G41A,0.108
6,C27U G45C,0.354
7,C27U G45A,0.819
8,C27G G48A,0.102
9,C27G G48C,0.147
10,G28C G48C,0.83
11,G28C G48U,0.543
12,G29U G45C,0.294
13,G29U G45U,0.574
14,G29U G45A,0.812
15,G29U G43U,0.299
16,G29C G44C,0.696
17,G29C G44A,0.791
18,A30U U37C,0.72
19,A30U U37A,0.742
20,G29A U31C,0.986
21,G29A U31G,0.926
22,G29A U31A,1.17
23,G29A G39C,0.166
24,G29A G39A,0.381

row,Variant,self-cleavage
1,U31A A34C,0.536
2,A30U A34C,0.17
3,G28C G43A,0.228
4,G28C G43C,0.149
5,G28A A35G,0.575
6,A30G G47C,0.534
7,C27U G39A,0.253
8,C27U G39C,0.136
9,C27G A35G,0.108
10,C27G A35C,0.104
11,C27G A35U,0.0981
12,U31A C46A,0.816
13,G28U G29U,0.972
14,C27G G42U,0.0711
15,G28C G44C,0.666
16,G28C G44U,0.738
17,G29A G42C,0.46
18,G28U G44A,0.718
19,A30C A34G,0.326
20,G29C C46A,0.708
21,G29C C46U,0.769
22,G29C C46G,0.586
23,G29C A33U,0.579
24,G29C A33G,0.573

row,Variant,self-cleavage
1,C27U G44U,0.774
2,A30C G47C,0.17
3,G29U A33U,0.911
4,G29U A33C,0.821
5,A30U A40C,0.2
6,A30U A40U,0.152
7,A30U A40G,0.165
8,G28C G36U,0.101
9,A30C G39A,0.189
10,A30U G36C,0.559
11,U31A G39A,0.343
12,U31A G39C,0.151
13,G29A A34U,0.833
14,G29A A34C,0.282
15,G29U A34G,0.684
16,A30U U31A,0.931
17,U31A G43U,0.233
18,U31A G43A,0.23
19,U31A G43C,0.168
20,C27U U37C,0.179
21,C27U U37G,0.342
22,U31A G42U,0.341
23,A30U G48C,1.07
24,G29U G36A,0.481

row,Variant,self-cleavage
1,A30G G36C,0.422
2,A30G G36A,0.761
3,C27U A32C,0.755
4,C27U A32U,0.842
5,G29U G38C,0.778
6,G29U G38A,0.775
7,G28U A40G,0.155
8,G28U A40C,0.136
9,G28U A40U,0.156
10,G28A U37A,0.465
11,G29C U31C,0.999
12,U31A G47U,0.621
13,U31A G47A,0.628
14,U31A G47C,0.391
15,A30C U31G,0.839
16,G29A G41C,0.22
17,G29A G41A,0.452
18,C27G G36C,0.0945
19,G29A U37C,0.444
20,A30G G43A,0.22
21,A30G G43C,0.225
22,G29C G45C,0.211
23,A30C G38U,0.715
24,A30C G38A,0.649

row,Variant,self-cleavage
1,G29A A30U,0.709
2,G29A A30C,0.865
3,G29A A30G,0.892
4,A30U A35C,1.07
5,A30U A35G,0.772
6,A30U A35U,0.812
7,G28C G29A,1
8,G28A G39C,0.154
9,G28A G39A,0.326
10,A30U A33U,0.873
11,A30U A33G,1.03
12,G29C A40U,0.101
13,G29C A40C,0.153
14,C27G C46G,0.1
15,A30U G42C,0.501
16,A30U G42U,0.434
17,G29A G38A,0.772
18,G29A G38C,0.7
19,A30C G42A,0.129
20,A30C G42U,0.0949
21,A30G A33G,0.806
22,C27G G45U,0.0905
23,C27G G45A,0.0977
24,C27G G45C,0.0921

row,Variant,self-cleavage
1,A30C G36A,0.164
2,A30G G38U,0.771
3,U31A A33C,0.833
4,G29C A35U,0.885
5,G29C A35C,0.701
6,G29C A35G,0.544
7,A30C A33G,0.58
8,A30G A32U,0.962
9,A30G A32G,1.02
10,G28U A30U,0.985
11,G29A G48U,0.916
12,G29A G48C,1.1
13,U31A G44U,0.83
14,U31A G44A,0.689
15,G29C G43C,0.118
16,G29C G43A,0.119
17,G28A G38C,0.691
18,G28A G38U,0.681
19,G29U A35U,0.892
20,G28A U31A,0.904
21,G28A U31G,0.916
22,C27U G48C,0.844
23,A30U C46U,0.968
24,A30G G39A,0.582

row,Variant,self-cleavage
1,A30G G39U,0.191
2,A30G G39C,0.159
3,G28C A30U,0.857
4,G28C A35U,0.806
5,G28C A35G,0.596
6,G28C A35C,0.912
7,G28A A40U,0.125
8,G28A A40C,0.163
9,G28A A40G,0.188
10,A30C G48U,0.759
11,A30C G48C,0.933
12,A30G G42C,0.571
13,A30G G42A,0.413
14,G29U U31A,0.999
15,C27G G29C,0.0656
16,C27G G29A,0.0827
17,A30U,0.984
18,A30C,0.911
19,A30G,0.952
20,A30C U37C,0.154
21,A30C U37A,0.231
22,U31A A32G,0.985
23,G28C G47U,0.378
24,G28C G47A,0.28

row,Variant,self-cleavage
1,A30C G43A,0.187
2,A30U G38U,0.957
3,A30U G38C,0.88
4,G28A G36A,0.397
5,G28A G36U,0.15
6,G29C A30G,0.91
7,G29C A30U,1.1
8,A30G G45A,0.901
9,A30G G45U,0.757
10,A30G G44A,0.85
11,G28U G41U,0.419
12,G29C G39C,0.14
13,G29U A32G,0.781
14,G29U A32U,0.911
15,C27U G29U,0.441
16,C27U G29C,0.124
17,C27U G29A,0.687
18,C27U A30U,0.758
19,C27U A30G,0.777
20,C27G G44A,0.0871
21,G28A A33C,0.873
22,G29A G36U,0.265
23,G28U G45C,0.175
24,G28U G45A,0.637

row,Variant,self-cleavage
1,G29A C46G,0.838
2,A30G G41A,0.666
3,A30G G41U,0.772
4,C27G G38C,0.0767
5,C27G G38A,0.0803
6,C27G G38U,0.093
7,C27G A34G,0.124
8,C27G A34U,0.0972
9,G29C G36A,0.188
10,G29C G36C,0.122
11,G28C G45A,0.552
12,C27U G47C,0.323
13,C27U G47A,0.56
14,C27U G47U,0.632
15,G28U A34G,0.574
16,A30C G44A,1.01
17,U31A G48C,1.19
18,U31A G48U,0.881
19,U31A G48A,0.717
20,G28U G42U,0.238
21,G28U G42C,0.407
22,A30U A32G,0.928
23,C27U G28A,0.478
24,G28U G39A,0.362

row,Variant,self-cleavage
1,G28U G39C,0.15
2,G28A C46U,0.918
3,U31A A40C,0.207
4,C27U G43C,0.135
5,G28C U37A,0.241
6,G28C U37G,0.144
7,G28U G48A,0.726
8,G28U G48U,0.809
9,G28U G48C,0.921
10,G29A A33U,0.759
11,G29A A33C,0.768
12,G28C,0.894
13,G28A,0.897
14,G28U,0.91
15,G29U G48C,1.11
16,A30G G48A,0.958
17,G29U G41U,0.521
18,G29U G41A,0.422
19,U31A G45C,0.347
20,G29U A30C,1.06
21,G29U A30U,0.912
22,A30G A35C,0.792
23,A30G A35U,0.782
24,G29C G38C,0.736

row,Variant,self-cleavage
1,G29C G38A,0.796
2,G28U G47C,0.287
3,G28A G42A,0.263
4,G28A G42C,0.272
5,U31A G41A,0.452
6,U31A G41C,0.266
7,G29U G42U,0.261
8,G29U G42C,0.388
9,G29C G48C,0.688
10,G29C G48A,0.56
11,C27U C46G,0.914
12,C27U C46U,0.822
13,A30C A40G,0.189
14,A30C A40C,0.103
15,A30C A40U,0.0909
16,G28A G41U,0.397
17,G28A G41C,0.177
18,G28U A35C,0.888
19,G28C A32C,0.728
20,A30G A40U,0.0959
21,A30G A40C,0.215
22,A30G C46A,0.763
23,C27U A40U,0.164
24,C27U A40G,0.119

row,Variant,self-cleavage
1,C27U A40C,0.159
2,A30G U31C,0.988
3,C27U A34C,0.0865
4,C27U A34U,0.567
5,C27G G41U,0.0753
6,C27G G41C,0.0915
7,C27G G41A,0.0929
8,G28U G38U,0.766
9,G28C G42C,0.296
10,G28C G42U,0.169
11,G28C G42A,0.185
12,C27G U37A,0.106
13,G28C A34U,0.567
14,G28U G36U,0.136
15,A30C A35G,0.38
16,A30C A35C,0.808
17,G28C A33U,0.556
18,C27U G42U,0.177
19,C27U G42C,0.19
20,C27U G42A,0.184
21,G28C G39A,0.445
22,G28C G39U,0.173
23,G28A G29U,0.9
24,G28A G29C,0.71

row,Variant,self-cleavage
1,C27G U31G,0.0669
2,C27G U31A,0.099
3,C27U U31C,0.651
4,G28C A40G,0.188
5,G28C A40C,0.179
6,G29C A32C,0.662
7,G29C A32G,0.519
8,C27U A33C,0.764
9,C27G G39C,0.105
10,G28A G43C,0.163
11,G28A G43A,0.191
12,G28A G43U,0.326
13,G29A A35C,0.762
14,G29A A35U,0.887
15,G29U U37G,0.418
16,A30U G47C,0.669
17,G29A G45U,0.578
18,G29A G45A,0.724
19,C27U G38C,0.644
20,U31A G36A,0.614
21,U31A G36C,0.388
22,U31A G36U,0.292
23,G28A A34U,0.497
24,G29U G44C,0.858

row,Variant,self-cleavage
1,G29U G44A,0.79
2,G28U U31A,0.881
3,G28U U31C,0.946
4,G29C A34U,0.292
5,A30C A32G,0.821
6,G28U C46U,0.922
7,G28C G38C,0.531
8,G28C G38U,0.64
9,A30C G45C,0.266
10,A30C G45A,0.733
11,A30U G43U,0.558
12,A30U G43C,0.229
13,G29U C46A,0.876
14,G28A G48C,0.94
15,G28A G48U,0.778
16,G29A A32G,0.84
17,G28A G44U,0.874
18,A30U G41A,0.621
19,G29U G47U,0.694
20,G29U G47C,0.364
21,G29U G47A,0.71
22,A30G U37G,0.92
